# Patent publication US20240189443A1, “PD-L1 AND TLR7 DOUBLE-TARGETING NANOBODY COUPLING DRUG AND USE THEREOF IN ANTI-TUMOR” (SHANGHAI INSTITUTE OF MATERIA MEDICA, CHINESE ACADEMY OF …, priority 2021, published 2024)
# Values joined by “and” are separate entries in the source; they are usually repeats but may differ in a detail not shown here. Equal entries are not always repeated.
# Molecular target: T1, human PD-L1 on cell strain HEK293T/hPD-L1 (human, UniProt Q9NZQ7 19-290)
# T1 construct: whole, on cells
# Experiment: flow cytometry on HEK293T/hPD-L1, 10 µg/mL, anti-human IgG Fc (FITC)
# Details: not given
# Procedure: (§1) The cell strain HEK293T/hPD-L1 was digested, and centrifugationwas performed to remove the supernatant; the cells were washed one time with PBS and the cell density was adjusted to 2.5×10⁶ cells/mL; each cell sample was added to a 100 μL cell suspension, that is, a 2.5×10⁵ cell/sample was comprised; different anti-human PD-L1 candidate nanobodies (the concentration is 10 μg/mL) were respectively added to the samples; incubating for 20 min at 4° C.; centrifuging, removing supernatant, and the cells were washing once with PBS; using diluted antibody anti-human IgG Fc (FITC) as secondary antibody, and the cells were re-suspended; incubating at 4° C. for 20 min; centrifuging, removing supernatant, the cells were washing twice with PBS, and transferred to a flow tube; and was performed on-machine detection by using a flow cytometer to obtain the binding activity of the candidate nanobody and human PD-L1, as shown in FIG. 13.
# T1 sequence (Q9NZQ7 19-290): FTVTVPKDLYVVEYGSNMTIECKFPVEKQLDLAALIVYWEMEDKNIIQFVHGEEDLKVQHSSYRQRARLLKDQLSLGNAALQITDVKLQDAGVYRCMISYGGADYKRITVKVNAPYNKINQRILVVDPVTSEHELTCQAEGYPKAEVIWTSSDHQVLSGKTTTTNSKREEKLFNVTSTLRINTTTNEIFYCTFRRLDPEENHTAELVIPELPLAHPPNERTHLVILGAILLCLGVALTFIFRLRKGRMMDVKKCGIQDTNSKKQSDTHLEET
row,Molecule,binding result
1,"anti-human PD-L1 nanobody h_Nb4 (Fc fusion, not shown: Fc of human IgG1 from vector pFUSE-hIgG1-Fc) DVQLQESGGGLVQAGGSLRLSCAAPSRMFSGYTMGWYRQAPGKQRELVAQIANGGFTDYIDSVKGRFSISRDTVLNMMYLQMNSLKPEDTAVYYCNLVLVNGIPTRNWGQGTQVTVSS",binds
2,"anti-human PD-L1 nanobody h_Nb26 (Fc fusion, not shown: Fc of human IgG1 from vector pFUSE-hIgG1-Fc) DVQLQESGGGLVQPGGSLRLSCAAPGSIFRINAMGWYRQAPGKQRELVAAITSGGSTNYADSVQGRFTISRDNAKNTVYLQMNSLKPEDTAVYYCNVERRRPPHYYSDYDFDWGQGTQVTVSS",binds
3,"anti-human PD-L1 nanobody h_Nb1 (Fc fusion, Cloned into pFUSE-mIgG2b-Fc and pFUSE-hIgG1-Fc; not shown: Fc of human IgG1 from vector pFUSE-hIgG1-Fc) DVQLQESGGGLVQPGGSLRLSCAASGFTFSSYAMSWVRQAPGKGLEWVSDINSGGDNTDYADSVKGRFTISRDNAKNTLYLQMNSLKPEDTAVYYCARGPKLCFSSWGQGTQVTVSS",binds
4,"anti-human PD-L1 nanobody h_Nb2 (Fc fusion, not shown: Fc of human IgG1 from vector pFUSE-hIgG1-Fc) DVQLQESGGGLVQPGGSLRLSCAASGFTFGDRWMYWLRQAPGKGLEWVSSINPAGRSTYYADSVKGRFTISRDNAKNTLYLQMNSLKSEDTAVYYCTKDPGGYQKGQGTQVTVSS",binds

# System: induced high-expression PD-L1 CT26 tumor cell
# Experiment: Combined anti-tumor effect of Nb16 and SZU-101, IFN-γ-induced CT26 subcutaneous tumor model
# Format: in vivo, BALB/c mouse
# Details: Nb16 10 mg/kg intraperitoneal, SZU-101 3 mg/kg peritumoral
# Procedure: The mouse CT26 tumor cells were recovered and passaged, it was ensured that tumor cells at least have been subjected to 3 generations during tumor-bearing, and mouse IFN-γ with a final concentration of 100 ng/mL was used to induce tumor cells for 24 h before tumor-bearing, so that the cell surface thereof highly expresses PD-L1; the induced high-expression PD-L1 CT26 tumor cell was inoculated subcutaneously into a female BALB/c mouse, wherein the inoculation amount was 1×10^6 cells/one; and randomly grouping mice into four groups (9 per group), i.e., a same-type control group (mFc), a nano-antibody Nb16 group (Nb16), a TLR7 agonist SZU-101 group (SZU-101) and a combined treatment group (NB16/SZU-101), wherein the administration amount of the mFc and the Nb16 was 10 mg/kg, and intraperitoneal administration was performed; and the administration amount of the SZU-101 was 3 mg/kg, and the tumor was administered circumferentially. The administration cycle were Nb16 administered on D1, D5, D9, D12, and D14 and SZU-101 administered on D9-D14 (3A). The body weight of the mouse and the tumor major diameter (L) and the short diameter (W) in the administration cycle were observed and recorded until the anatomical endpoint, and the tumor volume V=(L×W×W)/2 was calculated, a tumor growth curve was drawed, and the tumor inhibition rate was calculated; and the experiment was terminated on the fifteenth day. After performing euthanasia, the animal was dissected, and the subcutaneous tumor was taken out.
row,Molecule,Anti-tumor effect
1,COCCOc1nc(N)c2nc(O)n(Cc3ccc(CNC(=O)CCC(=O)O)cc3)c2n1 [SZU-101],significantly inhibit tumor growth

# Same assay, conditions: Nb16 10 mg/kg intraperitoneal, SZU-101 3 mg/kg peritumoral; day 15
row,Molecule,Tumor inhibitory rate
1,COCCOc1nc(N)c2nc(O)n(Cc3ccc(CNC(=O)CCC(=O)O)cc3)c2n1 [SZU-101],49%

# Same assay, conditions: individual mice, day 15; Nb16 10 mg/kg intraperitoneal, SZU-101 3 mg/kg peritumoral
row,Molecule,Endpoint tumor Weight
1,COCCOc1nc(N)c2nc(O)n(Cc3ccc(CNC(=O)CCC(=O)O)cc3)c2n1 [SZU-101],0.298 g and 0.560 g and 0.330 g and 0.278 g and 0.354 g and 0.516 g and 0.286 g and 0.328 g and 0.426 g

# Molecular target: T2, HEK293T/hPD-L1 (Homo sapiens, UniProt Q9NZQ7)
# T2 construct: expressed in transfected cells; host or cells: HEK293T
# Experiment: Human PD-L1 binding activity assay of candidate anti-human PD-L1 nanobodies (flow cytometry)
# Details: nanobody 10 μg/mL
# Procedure: as §1, with “2.5×10^6” for “2.5×10⁶”, “2.5×10^5” for “2.5×10⁵”
# T2 sequence (Q9NZQ7 19-290): as the sequence (Q9NZQ7 19-290) above
row,Molecule,Binding activity with human PD-L1
1,"h_Nb12: anti-human PD-L1 nanobody, VHH SEQ ID NO: 44 (protein, h_Nb12 Amino acid sequence of VHH) VHH: DVQLQESGGGLVQAGGSLRLSCAASGRTFSSRAMGWFRQAPGKEREFVAAISGSGRNTYYADSVKGRFTISRDNAKNSVNLQMNSLKPEDTAVYYCNAAGGGITIATMTQRTQYDYWGQGTQVTVSS",good binding activity
2,"h_Nb4: anti-human PD-L1 nanobody, VHH SEQ ID NO: 29 (protein, h_Nb4 Amino acid sequence of VHH) VHH: DVQLQESGGGLVQAGGSLRLSCAAPSRMFSGYTMGWYRQAPGKQRELVAQIANGGFTDYIDSVKGRFSISRDTVLNMMYLQMNSLKPEDTAVYYCNLVLVNGIPTRNWGQGTQVTVSS",good binding activity
3,"h_Nb13: anti-human PD-L1 nanobody, VHH SEQ ID NO: 48 (protein, h_Nb13 Amino acid sequence of VHH) VHH: DVQLQESGGGLVQPGGSLRLSCAASGSIFSINAMGWYRQAPGKSRELVAAITSGGSTNYADSVKGRFTISRDTAKNTVYLLMNSLEPEDTAVYYCNVERRRPPHYLSEYDFDWGQGTQVTVSS",good binding activity
4,"h_Nb26: anti-human PD-L1 nanobody, VHH SEQ ID NO: 56 (protein, h_Nb26 Amino acid sequence of VHH) VHH: DVQLQESGGGLVQPGGSLRLSCAAPGSIFRINAMGWYRQAPGKQRELVAAITSGGSTNYADSVQGRFTISRDNAKNTVYLQMNSLKPEDTAVYYCNVERRRPPHYYSDYDFDWGQGTQVTVSS",good binding activity
5,"h_Nb5: anti-human PD-L1 nanobody, VHH SEQ ID NO: 33 (protein, h_Nb5 Amino acid sequence of VHH) VHH: DVQLQESGGGAVQSGESLRLSCAASGRDLMFYDVAWFRQAPGKEREGVSYIRSSGTLTKYADSVKGRFTISRDNDKNTVSLQMNSLNPEDTAKYYCAARLQSATSHSDLREDEFNSWGQGTQVTVSS",good binding activity
6,"h_Nb6: anti-human PD-L1 nanobody, VHH SEQ ID NO: 37 (protein, h_Nb6 Amino acid sequence of VHH) VHH: DVQLQESGGGLAQPGGSLRLSCAASGFTFSSYAMSWARQAPGKGLEWVAGIYRGGSDTYYADSVKGRFTISRDNTKNTLYLQMNSLKPEDTALYYCIQGWGLGYANYDYWGQGTQVTVSS",good binding activity
7,"h_Nb9: anti-human PD-L1 nanobody, VHH SEQ ID NO: 40 (protein, h_Nb9 Amino acid sequence of VHH) VHH: DVQLQESGGGLVQPGGSLRLSCASSGSIFGLGVKGWYRQPPGNQREMVAQIISGGRISYADSVKGRFTISRDNAKNTVYLQMNSLKPEDTAVYYCNAWGPGQRNYWGRGTQVTVSS",good binding activity

# Molecular target: PD-1/PD-L1 (Mus musculus, UniProt Q9EP73)
# Experiment: In vitro activity of candidate nanobodies NB9, NB10, NB11, NB17 (blocking or non-blocking type)
# Format: binding
# Details: not given
# Chain of PD-1/PD-L1 (Q9EP73 19-239): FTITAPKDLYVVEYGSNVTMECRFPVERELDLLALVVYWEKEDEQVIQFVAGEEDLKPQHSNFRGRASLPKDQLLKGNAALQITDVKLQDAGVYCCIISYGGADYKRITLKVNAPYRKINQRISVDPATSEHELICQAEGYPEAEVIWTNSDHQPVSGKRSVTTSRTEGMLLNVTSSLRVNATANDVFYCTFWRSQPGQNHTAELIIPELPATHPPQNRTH
row,Molecule,Blocking type or non-blocking type nanobody
1,"Nb17: anti-PD-L1 nanobody, VHH SEQ ID NO: 17 (protein, Nb17 Amino acid sequence of VHH) VHH: QVQLQESGGGSVQAGGSLRLSCAASGYSARRRMGWFRQAPGKEREGVASIYTAGGRTWYADSVKGRFTISQDNAKNTVYLQMNSLKPDDTAMYYCAASPAPYGAESLSEADFAYWGQGTQVTVSS",non-blocking
2,"Nb11: anti-PD-L1 nanobody, VHH SEQ ID NO: 13 (protein, Nb11 Amino acid sequence of VHH) VHH: QVQLQESGGGSVQAEGSLRLSCSAPIYVTYYGTYCMGWFRQAPGKEREGVAGISGDGRTSYADSVKGRFTVSKDNAKNTLYLEMNSLKPEDTAMYYCALRIGGYCDTLNGADFRYWGQGTQVTVSS",non-blocking
3,"Nb9: anti-PD-L1 nanobody, VHH SEQ ID NO: 5 (protein, Nb9 Amino acid sequence of VHH) VHH: QVQLQESGGGLVHPGGSLRLSCAASGFTFSSYTMRWVRQAPGKGLEWVSGINNVGGSTLYADSVKGRFTISRDNAKNTLYLQMNSLQPDDTAMYYCATGIIGSGLETATYRGQGTQVTVSS",blocking type
4,"Nb10: anti-PD-L1 nanobody, VHH SEQ ID NO: 9 (protein, Nb10 Amino acid sequence of VHH) VHH: QVQLQESGGGSVQAGGSLRLSCAASGYRFCRLAMRWYRQAPGKEREFVSFIDSGGTTSYADSVKGRFTISRDSAKNTVYLQMNSLKPEDTGMYYCNSDILGGGGGCPVSSYWGQGTQVTVSS",blocking type
